From PMC10397247
Like-named read-outs stand apart in the source and are kept apart here. Each block holds one binder with its values, some of them ahead of it.

How the values were obtained:
[1] = target: T1, 4H3277-bA; assay: two-hybrid library CCNG1;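 further: natural log of median RNA to DNA barcode read ratio; higher means stronger binding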
T1 chain: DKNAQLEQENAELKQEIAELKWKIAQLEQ

[2] = target: T2, 4H3497-bA; assay: two-hybrid library CCNG1;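 further: natural log of median RNA to DNA barcode read ratio; higher means stronger binding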
T2 chain: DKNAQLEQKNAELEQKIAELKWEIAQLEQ

[3] = target: T3, 4H3175-bA; assay: two-hybrid library CCNG1;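 further: natural log of median RNA to DNA barcode read ratio; higher means stronger binding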
T3 chain: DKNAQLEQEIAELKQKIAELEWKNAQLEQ

[4] = target: T4, 4H1899-bA; assay: two-hybrid library CCNG1;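 further: natural log of median RNA to DNA barcode read ratio; higher means stronger binding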
T4 chain: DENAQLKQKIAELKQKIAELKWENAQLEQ

[5] = target: T5, 4H3858-bA; assay: two-hybrid library CCNG1
T5 chain: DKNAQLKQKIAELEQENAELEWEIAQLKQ

[6] = target: T6, 4H3974-bA; assay: two-hybrid library CCNG1
T6 chain: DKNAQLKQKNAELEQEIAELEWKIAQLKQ

[7] = target: T7, 4H3613-bA; assay: two-hybrid library CCNG1
T7 chain: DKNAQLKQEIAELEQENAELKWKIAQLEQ

[8] = target: T8, 4H1985-bA; assay: two-hybrid library CCNG1
T8 chain: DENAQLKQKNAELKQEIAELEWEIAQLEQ

[9] = target: T9, 4H3926-bA; assay: two-hybrid library CCNG1
T9 chain: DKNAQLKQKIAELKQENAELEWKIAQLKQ

[10] = target: T10, 4H591-bA; assay: two-hybrid library CCNG1
T10 chain: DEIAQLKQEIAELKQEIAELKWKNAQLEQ

[11] = target: T11, 4H1348-bA; assay: two-hybrid library CCNG1
T11 chain: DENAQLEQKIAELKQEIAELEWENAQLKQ

[12] = target: T12, 4H1710-bA; assay: two-hybrid library CCNG1
T12 chain: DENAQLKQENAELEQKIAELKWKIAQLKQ

[13] = target: T13, 4H3462-bA; assay: two-hybrid library CCNG1
T13 chain: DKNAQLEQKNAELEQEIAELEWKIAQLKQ

[14] = target: T14, 4H850-bA; assay: two-hybrid library CCNG1
T14 chain: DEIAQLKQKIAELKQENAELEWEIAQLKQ

[15] = target: T15, 4H338-bH; assay: two-hybrid library CCNG1
T15 chain: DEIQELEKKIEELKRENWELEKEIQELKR

[16] = target: T16, 4H3162-bA; assay: two-hybrid library CCNG1
T16 chain: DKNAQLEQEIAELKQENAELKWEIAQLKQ

[17] = target: T17, 4H1449-bA; assay: two-hybrid library CCNG1
T17 chain: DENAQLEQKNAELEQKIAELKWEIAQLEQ

[18] = target: T18, 4H3298-bA; assay: two-hybrid library CCNG1
T18 chain: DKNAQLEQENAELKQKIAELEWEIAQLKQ

[19] = target: T19, 4H906-bA; assay: two-hybrid library CCNG1
T19 chain: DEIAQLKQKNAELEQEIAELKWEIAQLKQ

[20] = target: T20, 4H3628-bA; assay: two-hybrid library CCNG1
T20 chain: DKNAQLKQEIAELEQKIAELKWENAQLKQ

[21] = target: T21, 4H3638-bA; assay: two-hybrid library CCNG1
T21 chain: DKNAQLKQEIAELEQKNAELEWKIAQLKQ

[22] = target: T22, 4H1373-bA; assay: two-hybrid library CCNG1
T22 chain: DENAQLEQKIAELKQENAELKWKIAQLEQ

[23] = target: T23, 4H1544-bA; assay: two-hybrid library CCNG1
T23 chain: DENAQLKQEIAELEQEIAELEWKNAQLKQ

[24] = target: T24, 4H626-bA; assay: two-hybrid library CCNG1
T24 chain: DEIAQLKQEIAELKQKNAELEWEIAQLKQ

[25] = target: T25, 4H570-bA; assay: two-hybrid library CCNG1
T25 chain: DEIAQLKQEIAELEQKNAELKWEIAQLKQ

[26] = target: T26, 4H3817-bA; assay: two-hybrid library CCNG1
T26 chain: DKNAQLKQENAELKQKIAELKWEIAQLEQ

[27] = target: T27, O8-AA; assay: two-hybrid library CCmax; conditions: mean of both orientations
T27 chain: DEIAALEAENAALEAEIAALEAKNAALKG

[28] = target: T28, O2-AA; assay: two-hybrid library CCmax; conditions: mean of both orientations
T28 chain: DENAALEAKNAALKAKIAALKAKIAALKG

[29] = target: T29, O3-AA; assay: two-hybrid library CCmax; conditions: mean of both orientations
T29 chain: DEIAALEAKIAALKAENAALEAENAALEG

[30] = target: T30, O13-AA; assay: two-hybrid library CCmax; conditions: mean of both orientations
T30 chain: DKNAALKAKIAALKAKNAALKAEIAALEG

[31] = target: T31, O6-AA; assay: two-hybrid library CCmax; conditions: mean of both orientations
T31 chain: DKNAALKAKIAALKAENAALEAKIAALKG

[32] = target: T32, O5-AA; assay: two-hybrid library CCmax
T32 chain: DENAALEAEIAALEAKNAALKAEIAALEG

[33] = target: T33, P10-AA; assay: two-hybrid library CCmax; conditions: mean of both orientations
T33 chain: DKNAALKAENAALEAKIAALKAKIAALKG

[34] = target: T34, O11-AA; assay: two-hybrid library CCmax
T34 chain: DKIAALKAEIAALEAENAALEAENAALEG

[35] = target: T35, O14-AA; assay: two-hybrid library CCmax; conditions: mean of both orientations
T35 chain: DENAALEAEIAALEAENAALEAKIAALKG

[36] = target: T36, O4-AA; assay: two-hybrid library CCmax; conditions: mean of both orientations
T36 chain: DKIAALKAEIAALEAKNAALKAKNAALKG

[37] = target: T37, O1-AA; assay: two-hybrid library CCmax
T37 chain: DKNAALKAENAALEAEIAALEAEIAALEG

[38] = target: T38, O7-AA; assay: two-hybrid library CCmax; conditions: mean of both orientations
T38 chain: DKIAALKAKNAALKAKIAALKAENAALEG

[39] = target: T39, P9-AA; assay: two-hybrid library CCmax; conditions: mean of both orientations
T39 chain: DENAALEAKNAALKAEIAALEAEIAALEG

[40] = target: T40, 4H310-AA; assay: two-hybrid library CCmax; conditions: mean of both orientations
T40 chain: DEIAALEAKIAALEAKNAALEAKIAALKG

[41] = target: T41, 4H797-AA; assay: two-hybrid library CCmax; conditions: mean of both orientations
T41 chain: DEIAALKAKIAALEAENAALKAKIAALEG

[42] = target: T42, 4H710-AA; assay: two-hybrid library CCmax; conditions: mean of both orientations
T42 chain: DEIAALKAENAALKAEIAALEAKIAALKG

[43] = target: T43, 4H536-AA; assay: two-hybrid library CCmax; conditions: mean of both orientations
T43 chain: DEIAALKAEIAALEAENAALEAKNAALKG

[44] = target: T44, 4H745-AA; assay: two-hybrid library CCmax; conditions: mean of both orientations
T44 chain: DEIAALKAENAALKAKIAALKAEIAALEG

[45] = target: T45, 4H3395-AA; assay: two-hybrid library CCmax; conditions: mean of both orientations
T45 chain: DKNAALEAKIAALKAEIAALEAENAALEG

[46] = target: T46, 4H909-AA; assay: two-hybrid library CCmax; conditions: mean of both orientations
T46 chain: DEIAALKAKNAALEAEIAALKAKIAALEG

[47] = target: T47, 4H458-AA; assay: two-hybrid library CCmax; conditions: mean of both orientations
T47 chain: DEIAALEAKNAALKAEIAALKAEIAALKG

[48] = target: T48, 4H3410-AA; assay: two-hybrid library CCmax; conditions: mean of both orientations
T48 chain: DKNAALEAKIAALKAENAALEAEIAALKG

[49] = target: T49, 4H384-AA; assay: two-hybrid library CCmax; conditions: mean of both orientations
T49 chain: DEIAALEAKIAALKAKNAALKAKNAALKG

[50] = target: T50, 4H485-AA; assay: two-hybrid library CCmax; conditions: mean of both orientations
T50 chain: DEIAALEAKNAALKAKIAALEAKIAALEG

[51] = target: T51, 4H629-AA; assay: two-hybrid library CCmax; conditions: mean of both orientations
T51 chain: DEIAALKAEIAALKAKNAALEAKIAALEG

[52] = target: T52, 4H3590-AA; assay: two-hybrid library CCmax; conditions: mean of both orientations
T52 chain: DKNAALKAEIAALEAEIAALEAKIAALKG

[53] = target: T53, 4H3165-AA; assay: two-hybrid library CCmax; conditions: mean of both orientations
T53 chain: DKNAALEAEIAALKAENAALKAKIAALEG

[54] = target: T54, 4H850-AA; assay: two-hybrid library CCmax; conditions: mean of both orientations
T54 chain: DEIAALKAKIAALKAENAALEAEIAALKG

[55] = target: T55, 4H930-AA; assay: two-hybrid library CCmax; conditions: mean of both orientations
T55 chain: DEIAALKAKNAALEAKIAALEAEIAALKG

[56] = target: T56, 4H891-AA; assay: two-hybrid library CCmax; conditions: mean of both orientations
T56 chain: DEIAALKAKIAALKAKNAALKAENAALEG

[57] = target: T57, 4H3697-AA; assay: two-hybrid library CCmax; conditions: mean of both orientations
T57 chain: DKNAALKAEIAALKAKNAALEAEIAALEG

[58] = target: T58, 4H3016-AA; assay: two-hybrid library CCmax
T58 chain: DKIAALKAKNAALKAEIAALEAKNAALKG

[59] = target: T59, 4H3865-AA; assay: two-hybrid library CCmax; conditions: mean of both orientations
T59 chain: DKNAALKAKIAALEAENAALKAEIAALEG

[60] = target: T60, 4H3130-AA; assay: two-hybrid library CCmax; conditions: mean of both orientations
T60 chain: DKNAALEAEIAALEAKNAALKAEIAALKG

[61] = target: T61, 4H570-AA; assay: two-hybrid library CCmax; conditions: mean of both orientations
T61 chain: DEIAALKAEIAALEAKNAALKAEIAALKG

[62] = target: T62, 4H3381-AA; assay: two-hybrid library CCmax; conditions: mean of both orientations
T62 chain: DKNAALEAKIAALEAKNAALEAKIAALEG

[63] = target: T63, 4H3753-AA; assay: two-hybrid library CCmax; conditions: mean of both orientations
T63 chain: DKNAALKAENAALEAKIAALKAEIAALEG

[64] = target: T64, 4H94-AA; assay: two-hybrid library CCmax; conditions: mean of both orientations
T64 chain: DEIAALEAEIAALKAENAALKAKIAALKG

[65] = target: T65, 4H3120-AA; assay: two-hybrid library CCmax; conditions: mean of both orientations
T65 chain: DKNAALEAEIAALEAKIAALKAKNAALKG

interaction score [1]: -0.24
interaction score [2]: -0.616
interaction score [3]: 0.0318
interaction score [4]: 1.63
interaction score [5]: -0.895
interaction score [6]: 0.469
interaction score [7]: -1.05
interaction score [8]: -0.366
interaction score [9]: -0.392
interaction score [10]: -1.02
interaction score [11]: 0.78
interaction score [12]: 0.798
interaction score [13]: 0.657
interaction score [14]: -0.292
interaction score [15]: 1.22
interaction score [16]: -0.332
interaction score [17]: -0.151
interaction score [18]: -0.624
interaction score [19]: -0.721
interaction score [20]: 1.84
interaction score [21]: -0.0281
interaction score [22]: -0.7
interaction score [23]: -0.0997
interaction score [24]: -0.434
interaction score [25]: -0.301
interaction score [26]: -0.318
B1: 4H1348-bA (peptide)
chain: DENAQLEQKIAELKQEIAELEWENAQLKQ

interaction score [27]: -1.41
interaction score [28]: 2.13
interaction score [29]: -1.57
interaction score [30]: 0.0154
interaction score [31]: -1.79
interaction score [32]: -1.72
interaction score [33]: 1.05
interaction score [34]: -1.61
interaction score [35]: -1.66
interaction score [36]: -1.07
interaction score [37]: -2.06
interaction score [38]: -0.639
interaction score [39]: -0.278
B2: O1-AA (peptide)
chain: DKNAALKAENAALEAEIAALEAEIAALEG

interaction score [27]: 1.56
interaction score [28]: -1.29
interaction score [40]: -0.901
interaction score [41]: -1.65
interaction score [29]: -0.74
interaction score [42]: -1.35
interaction score [30]: -1.87
interaction score [43]: -0.944
interaction score [44]: 0.997
interaction score [31]: 0.964
interaction score [45]: -1.1
interaction score [46]: -0.857
interaction score [47]: -1.13
interaction score ([32]; mean of both orientations): -0.896
interaction score [48]: 0.759
interaction score [49]: -1.89
interaction score [50]: -0.786
interaction score [51]: -1.28
interaction score [52]: 0.669
interaction score [53]: -1.17
interaction score [54]: -0.436
interaction score [55]: -1.32
interaction score [56]: -1.63
interaction score [33]: -0.503
interaction score [57]: -0.432
interaction score ([34]; mean of both orientations): -1.4
interaction score [58]: -1.56
interaction score [59]: -1.38
interaction score [35]: 2
interaction score [36]: -1.64
interaction score [60]: -0.405
interaction score ([37]; mean of both orientations): -0.276
interaction score [61]: -1.4
interaction score [62]: -1.11
interaction score [38]: 0.0246
interaction score [63]: 0.667
interaction score [39]: -0.637
interaction score [64]: -0.745
interaction score [65]: -1.33
B3: 4H3016-AA (peptide)
chain: DKIAALKAKNAALKAEIAALEAKNAALKG
